Assay results reported in patent US20020032310A1.

Biological target: KGFR (keratinocyte growth factor receptor, KGFR-type isoform of the FGFR2/BEK gene) (mouse) (UniProt P21803)
Test: cell-based or functional assay

Transforming Activity: 14000 ffu/pmol DNA
Substance: KGF secreted from NIH 3T3 cells (from UniProt P36363 32-194) (ligand)
